One substance from PMC11161584 can be followed below.

The target in this assay is PTRAMP-CSS heterodimer (Plasmodium thrombospondin-related apical merozoite protein with small cystei (P. falciparum (3D7 clone))). Kind of assay: SPR.

In the case of “RH5-interacting protein (RIPR), full-length soluble recombinant protein (from UniProt O97302 20-1086) (natural protein)”, the Kd was determined as 4.5 µM.
